Results as given in US20230399650.
Numbering of substitutions follows the chain as printed.

Tests used:
[1] = tested on: T1, VapB^Q12 (Shigella sonnei 53G wild-type VapB antitoxin)
T1 sequence: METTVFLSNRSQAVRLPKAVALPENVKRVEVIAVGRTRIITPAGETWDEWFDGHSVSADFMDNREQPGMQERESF

[2] = tested on: T2, VapB^L12 (VapB of Shigella sonnei CS14, Q12L)
T2 sequence: T1 sequence with Q12L

[3] = tested on: T3, VapB^A12 (Shigella sonnei VapB, Q12A)
T3 sequence: T1 sequence with Q12A

[4] = tested on: VapBC hetero-octamer, VapB Q12L (VapBL12C, CS14 allele) (Shigella sonnei); assay: SPR; details: 25 C, 50 mM Tris pH 8.0, 150 mM NaCl; traces not at equilibrium; methods state chip duplex SH167 annealed with SH181 (SH181 printed is operator site 2 sequence)
[5] = tested on: VapBC hetero-octamer, VapB Q12A (VapBA12C) (Shigella sonnei); assay: SPR; details: 25 C, 50 mM Tris pH 8.0, 150 mM NaCl; approximate

| Substance | degradation after 4 hours, in the presence of control DNA [1] | degradation after 4 hours, without DNA [1] | degradation of VapB by Lon in the presence of control DNA [1] | degradation of VapB by Lon in the presence of long-chain polyphosphate [1] | degradation of VapB by Lon in the presence of operator DNA [1] | degradation of VapB by Lon, in vitro proteolysis over four hours, SDS-PAGE [1] | degradation of VapB by Lon, in vitro proteolysis with and without ATP, SDS-PAGE [1] | degradation of VapB by Lon in the presence of long-chain polyphosphate [2] | degradation of VapB by Lon in the presence of operator DNA or control DNA [2] | degradation of VapB by Lon, in vitro proteolysis over four hours, SDS-PAGE [2] | degradation of VapB by Lon, in vitro proteolysis with and without ATP, SDS-PAGE [2] | degradation of VapB by Lon in the presence of long-chain polyphosphate [3] | degradation of VapB by Lon in the presence of operator DNA or control DNA [3] | degradation of VapB by Lon, in vitro proteolysis with and without ATP, SDS-PAGE [3] | degradation of VapB by Lon, in vitro proteolysis, SDS-PAGE [3] | binding signal (fold lower affinity than VapBQ12C) [4] | binding signal (fold lower affinity than VapBQ12C) [5] |
| --- | --- | --- | --- | --- | --- | --- | --- | --- | --- | --- | --- | --- | --- | --- | --- | --- | --- |
| Shigella Lon protease, hexameric (Lon6) | 31% vs 55% degradation after 4 hours | 31% vs 55% degradation after 4 hours | significant degradation of VapB^Q12 was observed within two hours | Polyphosphate significantly reduced Lon degradation of VapB^Q12 | virtually no degradation of VapB^Q12 over the course of assays | no significant difference in the degradation of VapB^Q12 and VapB^L12 by Lon protease over the course of assays | VapB degradation by Lon protease is ATP dependent | significantly enhanced Lon degradation of both VapB^L12 and VapB^A12 | neither operator DNA nor control DNA affect Lon degradation of VapB^L12 or VapB^A12 | no significant difference in the degradation of VapB^Q12 and VapB^L12 by Lon protease over the course of assays | VapB degradation by Lon protease is ATP dependent | significantly enhanced Lon degradation of both VapB^L12 and VapB^A12 | neither operator DNA nor control DNA affect Lon degradation of VapB^L12 or VapB^A12 | VapB degradation by Lon protease is ATP dependent | after two hours we observed that VapB^A12 was degraded significantly more than VapB^L12 |  |  |
| ATCATAAACGTATATCCCTTTGACATATCCCG (double strand) [vapBC operator site 1, biotinylated for SPR (SH180 printed)] |  |  |  |  |  |  |  |  |  |  |  |  |  |  |  | 4 | 10 |
